Two molecules from publication PMC12101283, “Validation and Optimization of PURE Ribosome Display for Screening Synthetic Nanobody Libraries” (Antibodies, 2025) can be followed below.

In general, Kd refers to the equilibrium constant for the complex coming apart. A higher Kd goes with lower affinity.

In assay [1] the target is T1, human fatty acid binding protein 4 (Homo sapiens, UniProt P15090).
T1 construct: The methods describe only the plasmid His-SUMO-hFABP4-(GGGGS)4-SBP; also called hFABP4; FABP4; source: E. coli BL21 (DE3), purified (Ni-NTA, SEC); not shown: His, N-terminal, cleaved; SUMO, N-terminal, cleaved
T1 sequence (P15090 whole entry): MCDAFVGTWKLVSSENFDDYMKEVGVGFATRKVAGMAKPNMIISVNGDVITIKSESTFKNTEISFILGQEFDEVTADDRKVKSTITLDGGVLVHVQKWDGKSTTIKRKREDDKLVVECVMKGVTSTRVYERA
The experiment in a line: ITC; MicroCal PEAQ ITC, 25 °C, PBS, one binding site model; 50 µM F4_B6 in cell with 550 µM hFABP4 in syringe. As to conditions: both partners purified. (In ITC the heat of successive injections is recorded.)

Assay [2] has as its target T1, human fatty acid binding protein 4. Kind of assay: pull-down; His-tagged nanobody captured from E. coli supernatant on Ni-NTA agarose and washed; 100 µL target protein solution (approximately 0.2 mg/mL) added; washes with PBS (10 mM imidazole in the 3rd); elution with 200 mM imidazole; SDS-PAGE. The following applies: both partners purified.

B1: F4_B6 (VHH)
VHH: QVQLVESGGGLVQAGGSLRLSCAASGVDMHNFEMGWYRQAPGKEREFVAAIDDVQPLTYYADSVKGRFTISRDNAKNTVYLQMNSLKPEDTAVYYCAAVKGDFWSESNYWGQGTQVTVSS
notes: source: E. coli BL21; supernatant of lysed cells (ELISA; captured on Ni-NTA for the pull-down); purified (Ni-NTA, SEC) for SEC and ITC
In turn, B1 came in with a Kd in assay [1] of about 295 nM.

B2: F4_C9 (VHH)
VHH: QVQLVESGGGLVQAGGSLRLSCAASGPPFSFVFMGWYRQAPGKEREFVAAIFDFTDETYYADSVKGRFTISRDNAKNTVYLHMNSLKPEDTAVYYCAAARGLNYWNNVYWGQGTQVTVSS
notes: source: E. coli BL21; supernatant of lysed cells (ELISA; captured on Ni-NTA for the pull-down)
As for B2, the binding result in assay [2] was “binds”.
